Assay: soluble on expression in E. coli; label from the status in PepcDB or PDB records

| Sequence | soluble on expression in E. coli |
| --- | --- |
| SLGMDEKSVAIVFPHHLLEDHPAAGKTSGFILVEDQLFFGDPVFGLRFHKNKLVLHRASMRYYHDHLKSRGLKAEYIQYSPDPHMGYLRDHLEGYDRVYTLELLDHELEARMKKLSMELGLEITEIEAPFIFRRNLMDGYFRDGRFLLRSFYIRERKRLSILMENSRPAGGKWTFDTENRKRMPPDLQVPAPVKLPENEYVQEAKEYVSEKFPDNPGSMDRFNYP | not soluble |
| SLHAQTFHSDSLLSQEEAAAAGDRRPAPDTWIYPLIQMKPFEIQIDEIVTETLLMEAERGAKVFLTTGYFNLTQAYMDLVLGTRAEYQILLASPEVNGFFGAKGVAGAIPAAYVHIERQFYSEVCSLGQQDRVQLQEYWRRGWTFHAKGLWLYLAGSSLPCLTLIGSPNFGYRSVHRDLEAQIAIVTESRSLQQQLHQEQEQLYLRSGVVTSATFEQPGRQVKLWVKMVTPLIKNFF | soluble |
| SLHIDVNNALNRAELVHSALFHEVDAIDSFCADWAEWDDTYNFVLNRNMDYVESNLVDETFPTLNVNYIVYLDRNGEVVLAKGYDLENETAMNPSQPLIERFRELSARNDLDVKKGFLRFDNSIYAFSARPILRSDETGPYAGTLIFARIVDDSFIQSPSKIAGLSFKILPVPKEKSVKFVNESALLVEFPLEDYSGRVVGTIEFYAEREALG | soluble |
| SLHIQRKSTMSKCSADETPVCCCMDVGTIMDNSDCTASYSRVFANRAEAEQTLAALTEKARSVESEPCKITPTFTEESDGVRLDIDFTFACEAEMLIFQLGLR | soluble |
| SLIDFHFHAPVKEFLDFLGEFGEPAIKYFNAKVEVKGLKETLDYYESFGIKRFVVLPIDSTTFLGRRIPNQVINLDDRIVKFISVDPSKPNADEELKRSIKEFEPVGVKLHPQLQGFHPLDERALKIYEIIDNHGLIVVFHTGTSGIGAGVKSSIRLDYGRPIYFDEIAVRFQNMKIILAHFGWPWTEEAIAIALHKPNVYLDLSGWAPRYIPQVIWSNAKRLSDKLLFGSDFPLIRPERWLEEFKSVNLSQDIKDKILKHNAEKLVKKS | soluble |
| SLKINQEEDTVSSEKNKLCDNNNNNNMVHTRHIYNVCELNKCLRENKLIPYNNIYKMKHLYLNILDTFDENILKHVNKAHLFIDSVIQKKKNILIHCMAGISRCSSIILSYVSKKNKKGIEYNFNLLKSKYPFAHPNENFYRQLLLYEKMNYTLDGCTDYHNIYK | soluble |
| SLKYCIHNTRLIIGIADRVIENGSILFDQDKILKVSAHSITDADVFIDGTTFSVLPGLIDVHVHLGMDCSVDPFDTMENTEDAFTSFIAYKQGLQFLRAGITTVRNLGTKNNVDIIYKKAVESGLVIGPRVYAAGQPLIMTGGHGQPMGTEVDGKDEVIKATRQRIKEGADLIKIMATGGVLTKGNHPGAVHFNVDELKCICQEAAKASLTTAAHAIGLNGVKNAIKAGVNTIEHGYYLDKETVDTMRDLGIYLTPTLLAPTLLQKNSEHIPQHMIDKIEEIEKEHRKSFRLALERGVKIIAGTDAGTPFNNPGQLVEELKIMLEEGMTTAQAIESATYLGAKCLKVDSLIGSLEEQKLADLIVVKGNPLEDISNLKNIQHVFKGGVRLYPDQIH | soluble |
| SLLCGPLRLSESGETWSEVWAAIPMSDPQVLHLQGGSQDGRLPRTIPLPSCKLSVPDPEERLDSGHVWKLQWAKQSWYLSASSAELQQQWLETLSTAAH | soluble |
| SLLTTCKSVLKLPYLEKIKVVAGEKGLNRIITWVQVVEYPEYSKWLKGGELILISGIAIKNNINSLVNFIRDINSRSLSGIVISIGPYIKEIPKEVIEIGNQLDFPIFEIPFEVKFIDVSQSICKAIFANKVNQESMENFMKDIIFRDFTFSEDILSRAVAYGYNPKTKYISFVVELHNEKDMLECDLKTKQYIEQIVIEVLGEWNKRSIHIMQYNSIILMLPKNEKRTIKNIAMNIIEEIISKAKNTSVNIGVGGEFSELRDFKISVSEAHRCLKVLKLNNDNNTVISYDELGIYKLFFQMDNLEEMKKFYLDVLKKLIDYDSKN | soluble |
| SLMKITRIEAIPYAIPYSRPLKFASGEVSTAEHVLVRIHTDAGICGVADTPPRPYTYGETQDSIVSVVTKVFAPQLIGMDPMDRSKVQQLLGRTVNNPTAKGALDIALWDVIGISLGTPVHKLLGGFSDSMRVSHMLGFKAAAELLEEALRFRETYGIDTFKLKVGRRPLSLDVEACHVLREGLGADTEIYLDANRGWTANEAMEVLRRTEGLGLSMLEEPCDAAEAMGRRRLVQHSSIPIVGDESVPNLGDVSRELLSGGSNAICIKTARSGFTEAQQILGLCEGLGVDVTMGNQIDTQVGSLATVTFGAAFEASSRRAGELSNYLDMTDDLLAEPLEITDGAIRVRKAPGVGAAIDADKLQKY | not soluble |
| SLMKQIKHFNQNYQELRQLGKVAIGRRAGKLKAGTIILFAVDSQGKILAARKMQGVTVLAKFHPLPQYVNEDIHYMDHYHPLVQKENKLTQQAMENAREIYLRVELGNYQETQPLTPLNGAKIQWQLWKNKVQTKLKGSVE | soluble |
| SLMLHAQHMPGQPGTPSLVFLHGFSGDCHEWQPVGEQFHGCSRLYIDLPGHGGSAAIPVDGFADVIRLLRATLISYNILKFWLVGYSLGGRVAMMAACQGIPGLCGLVVEGGHPGLQNEQARAERRLSDGRWAERFRHEPLTEVFHDWYQQPVFASLTAQQRQALTALRSQNNGETLAAMLEATSLAVQPDLREALNALAFPFYYLCGERDSKFRALAQEVAATCHVIRNAGHNAHRENPAGVVDSLAQILRL | soluble |
| SLNEVQQAVDMQRRQLLQRLGKDFDPSMLDDKLLKEAALKGLIERTLLLQAAKDDKFAFSDQALDQLILQTPEFQVDGKFNADRFDQVIRQMNYSRMQFRQMLGQEMLIGQLRAGLAGTGFVTDNELQSFARLEKQTRDFATLAIKADASKSSVSDDEVKAFYEGHKSEFMTPEQVVVEYVELKKSSFFDQVKVKQEDLEALYQKEIANLSEQRDAAHILIEVNDKVGDEQAKAKIDEIKARLAKGEDFAALAKEFSQDIGSAATGGDLGYAGRGVYDPAFEEALYALKQGEVSAPVKTPYGYHLIKLLGVQAPEVPSLESLKPKLEDELKKQMVEQRFVEATKDLESSAYEAADLSQPAQEMGLKVQTSQPFGRSGGDGIAANRQIVQTAFSAEVLEEAANSGAIELDPDTVVVLRVKEHNKPKEQPLEQVAANIRERLAAEKAAEEAQKRGEALIAELREGRTSSAAGESWKVVEAASRGHEGVDPKLLQAVFRMQRPEAKDKPSFSGVTLANGDYVVIRLNGVSEPEEAISDDEKAMYRRFLASRSGQADFAAFRRQLQD | not soluble |
| SLNSVKRVGGSNRYGTAVQISKQMYSTASTAVIVGGSSYADAISAAPLAYQKNAPLLYTNSDKLSYETKTRLKEMQTKNVIIVGGTPAVSSNTANQIKSLGIS | not soluble |
| SLPEKVLVAGNNVRNVAESASKAGFEVFAITKFVDADLRIYCREVERVDDSLPEKEIAKKIEDKAEEIDAKVVLCSGFETLRVRGELLCNPYGKVERVANKLKFYRELEKAGLPFPELLGEGERGIIKPVVGGGGEEVVMGEEVPKGFLKQRFVSGTPCSVSVIANGERALPLACNLIYAGWKEMNASGFRYSGNMTPFIVEEEIRKELERLAVEAVELFGLAGSVGVDFVLAEKPYILEINPRFQGSLDSVEWSCDVNLFKMHAEAFDGRLPERVRPRRYALRAILFSPRDVEIKENLAGNPFYADVPGKGERYGKNDPLVSILAAGKSREDVERRVLERRDLFLSLA | not soluble |
| SLPLQQYRDFIDNQMLLLVAQRDRASRIFPHLYLGSEWNAANLEELQRNRVTHILNMAREIDNFYPERFTYHNVRLWDEESAQLLPHWKETHRFIEAARAQGTHVLVHCKMGVSRSAATVLAYAMKQYECSLEQALRHVQELRPIARPNPGFLRQLQIYQGILTART | not soluble |
| SLPLTMTVLILLLLPTGQAAPKDGVTRPDSEVQHQLLPNPFQPGQEQLGLLQSYLKGLGRTEVQLEHLSREQVLLYLFALHDYDQSGQLDGLELLSMLTAALAPGAANSPTTNPVILIVDKVLETQDLNGDGLMTPAELINFPGVALRHVEPGEPLAPSPQEPQAVGRQSLLAKSPLRQETQEAPGPREEAKGQVEARRESLDPVQEPGGQAEADGDVPGPRGEAEGQAEAKGDAPGPRGEAGGQAEAEGDAPGPRGEAGGQAEARENGEEAKELPGETLESKNTQNDFEVHIVQVENDEI | soluble |
